According to the RNAGym collection of RNA variant scans (doi:10.1093/nar/gkz1192):

B1: CPEB3 Ribozyme (parent)
chain: UAACAGGGGGCCACAGCAGAAGCGUUCACGUCGCAGCCCCUGUCAGAUUCUGGUGAAUCUGCGAAUUCUGCUGUAUAUCUC

Variants of: B1
Test: self-cleavage, relative activity (ratio to wild type); higher = more cleavage; in vitro, sequencing
In short: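 For each CPEB3 ribozyme variant, relative activity is its cleaved/total read fraction divided by the unmutated ribozyme's. Barcoded error-prone PCR libraries were transcribed by T7 RNA polymerase (5 hours, 37°C) and held in DNase I for 15 min before an EDTA stop, with cleavage occurring throughout. Template-switching reverse transcription and Illumina sequencing were used to read the RNAs. A 5-read minimum applied, and results are the mean of three batches.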
Variant C34G C44A has a self-cleavage of 0.1. C34A A45G showed a self-cleavage of 0.37. Work on C34A A45C yielded a self-cleavage of 0.19. Work on C34G U69A yielded a self-cleavage of 0.3. C34G U69C showed a self-cleavage of 0.21. With C34A U80G the self-cleavage was 0.33. With C34A U80C the self-cleavage was 0.34. Work on C34U U67G yielded a self-cleavage of 0.12. C34U U67C showed a self-cleavage of 0.12. Variant C34U U67A has a self-cleavage of 0.42. C34G U72C showed a self-cleavage of 0.22. C34G U72G showed a self-cleavage of 0.15. For C34G U72A, the self-cleavage was 0.08. C34G U49A showed a self-cleavage of 0.24. Work on C34G U49C yielded a self-cleavage of 0.07. In the case of C34U A35G, the self-cleavage is reported as 0.36. C34U A35U showed a self-cleavage of 0.27. G33A U80G gave a self-cleavage of 0.14. For G33A U80C, the self-cleavage was 0.31. G33A U80A showed a self-cleavage of 0.29. G33C U43C showed a self-cleavage of 0.22. For G33C U43A, the self-cleavage was 0.18. Work on C32U C79A yielded a self-cleavage of 0.22. C34U A75G showed a self-cleavage of 0.18. Variant G33A G73A has a self-cleavage of 0.51. Variant G33U A57G has a self-cleavage of 0.28. In the case of C32U A56G, the self-cleavage is reported as 0.17. C32U A56U gave a self-cleavage of 0.19. For C32U U49A, the self-cleavage was 0.15. In the case of C32U U49C, the self-cleavage is reported as 0.21. Variant C34G U41C has a self-cleavage of 0.14. Variant C32U C81U has a self-cleavage of 0.37. With G33U U76C the self-cleavage was 0.32. Variant C32U G55A has a self-cleavage of 0.14. C34G U78A gave a self-cleavage of 0.26. In the case of C34G U78C, the self-cleavage is reported as 0.22. Variant C32U C59U has a self-cleavage of 0.12. With C34U C44A the self-cleavage was 0.38. Variant C32U A57C has a self-cleavage of 0.13. Work on C32U A57U yielded a self-cleavage of 0.13. Work on C32U A57G yielded a self-cleavage of 0.22. G33C U69A gave a self-cleavage of 0.07. G33C U69C gave a self-cleavage of 0.13. With G33C A56G the self-cleavage was 0.12. Variant G33C A56U has a self-cleavage of 0.14. For C32U A47U, the self-cleavage was 0.32. C32U A47G gave a self-cleavage of 0.19. C34A U66C gave a self-cleavage of 0.46. Variant C32U U76C has a self-cleavage of 0.2. In the case of C32U U76A, the self-cleavage is reported as 0.18. G33A U74C gave a self-cleavage of 0.57. G33A U74A showed a self-cleavage of 0.33. In the case of G33A A56G, the self-cleavage is reported as 0.28. Variant G33A A56U has a self-cleavage of 0.18. G33C U76C gave a self-cleavage of 0.12. In the case of G33A A57C, the self-cleavage is reported as 0.11. With G33A A57G the self-cleavage was 0.25. Variant C34G U58C has a self-cleavage of 0.15. Variant C34G U58A has a self-cleavage of 0.11. For G33C A47G, the self-cleavage was 0.08. Variant C34A U41G has a self-cleavage of 0.39. In the case of G33U U60C, the self-cleavage is reported as 0.11. Variant G33U U60A has a self-cleavage of 0.48. Variant G33U U48C has a self-cleavage of 0.08. G33C G52A showed a self-cleavage of 0.19. G33A U41A gave a self-cleavage of 0.41. For G33A U41C, the self-cleavage was 0.39. Variant G33U G61C has a self-cleavage of 0.13. In the case of C34U U74C, the self-cleavage is reported as 0.84. For C34U U74A, the self-cleavage was 0.52. Work on G33A U48G yielded a self-cleavage of 0.18. Work on G33A U48C yielded a self-cleavage of 0.26. In the case of G33C U78A, the self-cleavage is reported as 0.08. With G33C U78C the self-cleavage was 0.09. C32U A45G gave a self-cleavage of 0.15. C32U A45U showed a self-cleavage of 0.3. C32U A45C showed a self-cleavage of 0.15. In the case of C32U G42A, the self-cleavage is reported as 0.19. In the case of C34U U54C, the self-cleavage is reported as 0.44. Variant C34U U54A has a self-cleavage of 0.24. In the case of C34U U60C, the self-cleavage is reported as 0.11. Work on C34U U60A yielded a self-cleavage of 0.14. In the case of C34G G63C, the self-cleavage is reported as 0.24. In the case of C32U A75G, the self-cleavage is reported as 0.11. Variant G33A G63U has a self-cleavage of 0.1. G33A G63A gave a self-cleavage of 0.14. G33U A56G gave a self-cleavage of 0.29. G33U A56U showed a self-cleavage of 0.42. In the case of C34A A65G, the self-cleavage is reported as 0.26. Work on G33A A35U yielded a self-cleavage of 0.21. G33A A35G gave a self-cleavage of 0.39. G33C U80C gave a self-cleavage of 0.27. With C34G A56G the self-cleavage was 0.18. For G33U U58C, the self-cleavage was 0.13. C32U U72A showed a self-cleavage of 0.11. Work on C32U U72C yielded a self-cleavage of 0.4. In the case of C34G U80C, the self-cleavage is reported as 0.24. G33U A64G gave a self-cleavage of 0.12. Work on G33A A77G yielded a self-cleavage of 0.18. Work on G33A A77U yielded a self-cleavage of 0.23. In the case of G33C U67A, the self-cleavage is reported as 0.17. Work on G33C U67C yielded a self-cleavage of 0.12. Work on G33C U60A yielded a self-cleavage of 0.25. G33C U60G gave a self-cleavage of 0.12. G33C U60C gave a self-cleavage of 0.11. With C34U G52U the self-cleavage was 0.33. G33C U51A showed a self-cleavage of 0.15. In the case of G33C U51C, the self-cleavage is reported as 0.44. For G33U U51G, the self-cleavage was 0.09. G33U U51C gave a self-cleavage of 0.09. In the case of C34G U66C, the self-cleavage is reported as 0.23. G33A A47G gave a self-cleavage of 0.4. For C34U U58C, the self-cleavage was 0.16. In the case of G33A A75U, the self-cleavage is reported as 0.11. Work on G33A U69G yielded a self-cleavage of 0.16. In the case of G33A U69C, the self-cleavage is reported as 0.27. For G33C G36C, the self-cleavage was 0.15. For G33A A65C, the self-cleavage was 0.11. Work on G33A A65G yielded a self-cleavage of 0.35. With C32U G52C the self-cleavage was 0.2. A35C gave a self-cleavage of 0.85. Variant C32U U69C has a self-cleavage of 0.17. For C32U U69A, the self-cleavage was 0.23. G33C A64G gave a self-cleavage of 0.18. In the case of C34U U72C, the self-cleavage is reported as 0.63. For C34U U72G, the self-cleavage was 0.33. Variant C34U U72A has a self-cleavage of 0.26. C34G U76G showed a self-cleavage of 0.32. Work on C34A A56G yielded a self-cleavage of 0.22. C34A A56U gave a self-cleavage of 0.43. Work on G33U U72G yielded a self-cleavage of 0.28. Variant G33U U72C has a self-cleavage of 0.19. With C34U A64U the self-cleavage was 0.13. For C34U A64G, the self-cleavage was 0.45. Variant C32U U67C has a self-cleavage of 0.19. For C32U U41C, the self-cleavage was 0.26. With C32U U41A the self-cleavage was 0.27. With G33U U80A the self-cleavage was 0.25. G33U U80C showed a self-cleavage of 0.44. In the case of G33U U66C, the self-cleavage is reported as 0.13. Work on G33U U66A yielded a self-cleavage of 0.16. For G33A G61A, the self-cleavage was 0.14. For C34A C44U, the self-cleavage was 0.08. C32U A35U showed a self-cleavage of 0.32. G33A C68G showed a self-cleavage of 0.11. Work on G33A C68U yielded a self-cleavage of 0.19. In the case of G33C C79U, the self-cleavage is reported as 0.19. G33A C79A showed a self-cleavage of 0.23. Work on G33A U72G yielded a self-cleavage of 0.24. G33A U72C gave a self-cleavage of 0.26. Work on G33A U72A yielded a self-cleavage of 0.23. C34G U60C gave a self-cleavage of 0.15. Variant C34G U48C has a self-cleavage of 0.21. Work on G33U A35U yielded a self-cleavage of 0.15. With C32U U48C the self-cleavage was 0.13. In the case of C34G U67C, the self-cleavage is reported as 0.13. Variant G33A U60A has a self-cleavage of 0.15. G33A U60C showed a self-cleavage of 0.24. Variant G33U A65U has a self-cleavage of 0.13. G33U A65G gave a self-cleavage of 0.43. C34U A56U showed a self-cleavage of 0.34. Work on C34U A56G yielded a self-cleavage of 0.48. In the case of G33U U69C, the self-cleavage is reported as 0.2. C34U U49C gave a self-cleavage of 0.16. G33U U67C showed a self-cleavage of 0.16. Work on G33A U54A yielded a self-cleavage of 0.18. G33A U54C showed a self-cleavage of 0.15.
